Literature values in PMC8266389.

What was measured:
[1] = biological target: Cripto-1 (Homo sapiens) (UniProt P13385)
[2] = biological target: ACTRIIB (Homo sapiens) (UniProt Q13705)
[3] = biological target: ALK4 (Homo sapiens) (UniProt P36896)
[4] = biological target: ACTRIIA (Homo sapiens) (UniProt P27037)
[5] = biological target: BMPRII (Homo sapiens) (UniProt Q13873)
[6] = biological target: Cryptic (Homo sapiens) (UniProt P0CG37)
UniProt P0CG37, sequence (P0CG37 26-158): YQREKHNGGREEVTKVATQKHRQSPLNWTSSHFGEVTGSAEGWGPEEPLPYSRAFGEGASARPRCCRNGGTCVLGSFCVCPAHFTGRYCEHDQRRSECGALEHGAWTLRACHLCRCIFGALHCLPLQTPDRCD

UniProt Q13705, sequence (Q13705 19-137): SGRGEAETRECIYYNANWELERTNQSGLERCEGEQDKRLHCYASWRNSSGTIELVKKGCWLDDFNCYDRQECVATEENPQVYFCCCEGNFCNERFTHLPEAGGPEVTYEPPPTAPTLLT
UniProt P13385, sequence (P13385 31-150): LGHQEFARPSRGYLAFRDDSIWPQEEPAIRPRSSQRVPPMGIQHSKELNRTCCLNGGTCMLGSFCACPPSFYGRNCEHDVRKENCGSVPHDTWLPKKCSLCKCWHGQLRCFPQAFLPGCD
UniProt Q13873, sequence (Q13873 27-150): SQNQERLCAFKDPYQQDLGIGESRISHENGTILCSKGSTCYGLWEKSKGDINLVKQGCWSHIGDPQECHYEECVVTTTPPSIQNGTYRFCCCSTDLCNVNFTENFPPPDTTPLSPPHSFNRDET
UniProt P36896, sequence (P36896 24-126): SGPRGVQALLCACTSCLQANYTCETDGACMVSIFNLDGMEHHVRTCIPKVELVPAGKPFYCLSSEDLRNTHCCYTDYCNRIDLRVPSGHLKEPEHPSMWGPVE
UniProt P27037, sequence (P27037 20-135): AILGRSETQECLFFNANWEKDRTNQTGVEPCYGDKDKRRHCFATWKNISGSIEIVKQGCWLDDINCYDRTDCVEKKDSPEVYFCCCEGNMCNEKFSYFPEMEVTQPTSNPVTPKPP

Kd [1]: 16 nM | Kd [2]: 10 nM | Kd [3]: 15 nM | Kd [4]: 100 nM | Kd [5]: 0.149 nM | Kd [6]: 2000 nM
Substance: Nodal (from UniProt Q96S42)
